Measured values published in the nanobody polyreactivity screen of Harvey et al. (2022).

Assay: yeast display, Sf9 membrane polyspecificity reagent, FACS + sequencing; frameworks hold sequencing errors
How it was run: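 A synthetic nanobody library was expressed on Saccharomyces cerevisiae BJ5465 by galactose induction for 36–48 hours. The library was stained for 1 hour at 4 °C with 10% biotinylated, detergent-solubilized Sf9 membrane reagent and enriched with streptavidin microbeads before FACS. Low and high (top ~1%) gates were set on anti-HA fluorescence for expression and streptavidin fluorescence for reagent binding, and each polyreactivity label reflects the gate of origin.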

| Sequence | polyreactivity (PSR sort gate) |
| --- | --- |
| QVQLVESGGGLVQAGASLRLSCAASGRTFRYYDMGWSRQEPGKEREFVAAITWRGGSTYFADSVKGRFTISRDNAKNTVFLQMNSLKPEDTAVYYCATDSLRLYGGKRDLYFWGQGTQVTVSS | low polyreactivity |
| QVQLVESGGGLVQAGGSLRLSCAATGRTFLYNAMGWYRQAPGKERELVAAISFDDGSTYYADSVKGRFTISRDNAKNTVYLQMNSLKPEDPAVYYCAAEYLYVGDSQAYNQYEYWGQGTQVTVSS | low polyreactivity |
| QVQLVESGGGLVQAGGSLRLSCAASGRTFHWYAMGWYRQAPGKERELVAAIRYSAGSTYYADSVKGRFTISRDNAKNTVYLQMNSLKPEDTAVYYCAAEPYPYGPYYFLWLRYDYWGQGTQVTVSS | low polyreactivity |
| QVQLVESGGGLVQAGGSLRLSCAASGSIFVLYAMGWYRQAPGKERELVATITWSGDSTYYADSVKGRFTISRDNAKNTVYLQMNSLKPEDTAVYYCNKRIWDQYDWGQGTQVTVSS | low polyreactivity |
| QVKLVESGGGLVQAGGSLRLSCAASGLIFDTYAMGWYRQAHGKERELVADITLSGGSTYYADSLKGRFTISRDTAKNTVYLQMNSLKPVDTAVYYCAADSVSLFYWDQRYPDEYDYWGQGTQVTVSS | low polyreactivity |
| QVQLVESGGGLVQAGGSLRLSCAASGIIFYDYAMGWYRQAPGKERELVAAITSGGSTNYADSVKGRFTISRDNAKNTVYLQMNSLKPEDTAVYYCAATYWSWIPLRFYRGQGTQVTVSS | low polyreactivity |
| QVQLVESGGGLVQAGGSLRLSCAASGGTFKFYAMGWYRQAPGKERELVAAISWSGTSTYYADSVKGRFTISRDNAKNTVYLQMNSLKPEDTAVYYCAADKRLRGHGYDYWGQGTQVTVSS | high polyreactivity |
| QVQLVESGGGLVQAGGSLRLSCAASGSTFGWYAMGWYRQAPGKERELVAAIRRTGSTYYADSVKGRFTISRDNAKNTVYLQMNSLKPEDTAVYYCNAKYPLYLTGYDYWGQGTQVTVSS | low polyreactivity |
| QVQLVESGGGLVQAGGSLRLSCAASGSTFDVNAMGWYRQAPGKERELVAAITQSGGSTFYADSVKGRFTISRDNAKNTVYLQMNSLKPEDTAVYYWGQGTQVTVSS | low polyreactivity |
| QVQLVESGGGLVQAGGSLRLSCAASGFIFWYYGMGWYRQAPGKERELVAAINWSGTSTNYADSVKGRFTISRDNAKNTVYLQMNSLKPEDTAVYYCAAEYWYTYSWGQGTQVTVLS | low polyreactivity |
| QVQLVESGGGLVQAGGSLRLSCAASGFIFRRYTMGWSRQAHGKERELVAAITSSGGTNYADSVKGRFTISRDNAKNTVYLQMNSLKPEDTAVYFCAAESVSSVWYDYLGQGTQVTVSS | high polyreactivity |
| QVQLEESGGGFVQAGGSLRLSCAASGFIFSSNAMGWYRQAPGKERELVASISSGGSTNYADSVKGRFTISRDNAKNTVYLQMNSLKPEDTAVYYCAADGISLYATAYDYWGQGTQVTVSS | low polyreactivity |
| QVQLVESGGGLVLAGGSLPLSCAASGSIIWRNAMGWSRHAPVKERELVAAITWNGGSTYYADSVKGCFTSSRDNAKNTVYLQMNSLIPEDTAVYYSAARCEYPYDYWGQGSQVTVSS | low polyreactivity |
| QVQLLESGGGLVQAGGSLRLSCAASGRTFTTYTMGWYRQAPGKERELVAAIRSGGRTYYADSVKGRFTISRDNAKNTVYLQMNSLKPEDTAVYYCNARDCVRNVYAYAGRQYDYWGQGTQVTVSS | low polyreactivity |
| QVQLVESGGGLVQAGGSLRLSCAASGSTFRYYTMGWYRQAPGKEREFVAAITSSGTSTYYADSVKGRFTISRDNAKNTVYLQMNSLKPEDTAVYYCNKVGIYGSRSRYDSWGQGTQVTVSS | high polyreactivity |
| QVHLVESGGGLVQAGGSLRLSCAASGFIYWAYAMGWYRQAPGKERELVAGITRSGGSTYYADSVKGRFTISRDNAKNTVYLQMNSLKPEDTAVYYCAADFRYNGGYWGQGTQVTVSS | high polyreactivity |
| QVQLVESGGGLVQSGGSLRISCAASGGIFKYNAMGWYTQAPGKERELVAAINYSGGRTYYADSVKGRFTISRDNAKNTVYLQMNSLKPEDTAVFYCNALTRGHTGQPYTYDYWGQGNQVTVSS | high polyreactivity |
| QVQLVESGGGLVQAGGSLRLSCAASGGTSYAYTMGWYRQAPGKERELVAAISGSTGSTYYADSVKGRFTISRDNAKNTVYLQMNSLKPEDTAVYYCALLVGHNYWGQGTQVTVSS | low polyreactivity |
| QVQLVESGGGLVQAGGSLRLSCAASGFTLGSYVMGWSRQAPGKERELVARITWSGGSTYYADSVKGRFTISRDNAKNTVYLQMNSLKPEDTAVYYCNTGYWARLAYWPFNYKWDDYWGQGTQVTVSS | high polyreactivity |
| QVQLVESGGGLVQAGGSLRLSCAASGFIFTKNAIGWYRQAPGKERDLVDAISGTGGSTYYADSVKGRFTISRDNAKNTVYLKMNSLKPEDTAVYYCASRRYRLFSTGGQPGYYWGQGTQVTVSS | high polyreactivity |
| QVQLVESGGGLVQAGGSLRLSCAASGRIFRGNTMGWYRQAPGKERELVAAITIRGRTYYADSVKGRFTISRDNAKNTVYLQMNSLKPEDTAVYYCAVASAGDNDYWGQGTQVTVSS | low polyreactivity |
| QVQLVESGGGLVQAGGSLRLSCAASGSIFYVYAMGWYRQAPGKEREFVASIRTSGSSTYADSVKGRFTISRDNAKNTVYLQMNSLKPEDTAVYYCAAGSITVFWKRTGYRWRGYDYWGQGTQVTVSS | low polyreactivity |
| QEQLVESGGGFVQAGGSLRLSCAASGRIFTGYAMGWYRQAPGKERELVAVITWSTGSSTYYADSVKGRFTISRDNAKNTVYLQMNSLNPEDTAVYYFNAAYKIDFTYDTYDYWGQGTQVTVSS | low polyreactivity |
| QVQLVESGGGLVQAGGSLRLSCAASGSIFGGYAMGWYRQAPGKERELVAAITSSGGRTYYADSVKGRFTISRDNAKNTVDLQMNSLKPEDTAVYYCAASPNYYYYYPMYYWGQGTQVTVSS | high polyreactivity |
| QVQLVESGGGLVQAGGSLRLSCAASGSIFVRYTMGWYRQAPGKETELVAAISWGGGSTYYADSVKGRFTISRDNAKNSVYLQMNSLKPEDTAVYYCNKRYIQLYDYWGQGTKVTVSS | low polyreactivity |
| QVQLVESGGGLVQAGGSLRLSCAASGIIFGKYDMGWYRQAPGKEREMVAAITSGTSTNYADSVKGRFTISRDNAKNTVYLQMNSLKPEDTAVYSCAADVYLYYPYFGHRRYNYWGQGTQVTVSS | high polyreactivity |
| QVQLVESGGGLVQAGGSLRLSCAASGSIFLRYAMGWYRQAPGKERELVAAITTGGGSTYYADSVKGRFTISRDNAKNTVYLQMNRLKPEDPAVYYCAKRAQYHWRGRDDYSYYYWGQGTQVTVSS | low polyreactivity |
| QVQLVESGGGLVQAGGSLRLSCAASGLTFGPNALGWYRQAPGQERELVAAITTGGGTNYADSVKGRFTISRDNAKNTVYLQMNSLKPEDTAVYYCAADALDSPDGYDYCGQGTQVTVSS | low polyreactivity |
| QVQLVESGGGLVQAGGSLRLSCAASGYIFYENAMGWYRQAPGKERELVAAIRFTGGSTYYADSVKGRFTISRDNAKNTVYLQMNSLKPEDTAVYYCSKSYPDTQRYQYPRGWELDYWGQGTQVTVSS | low polyreactivity |
| QVQLVESGGGLVQAGGSLRLSCAASGSTFGGYVMGWYRQAPGKERELVATITQGDGSTYYADSVKGRFTISRDNAKNTVYLQMNSLKPEDTAVYYCAAYGWYDLYYWEYDYWGQGTQVTVSS | high polyreactivity |
